One may read the stoichiometry N as the number of molecules, sites or subunits per partner or assembly.

Several values for one entry are separate records, joined by “and”; a condition that tells them apart may be missing. Identical values can stand only once.

The results in this text go back to paper PMC6109231.

The target in the assay is 20S proteasome core (human (endogenous in HEK293T)). In words: negative-stain EM, single-particle analysis; SEC fraction 4 (1.5 to 2 MDa) of HEK293T lysate, Superdex 200 in PBS pH 7.2 at 4°C; 2% uranyl acetate; raw micrographs, reference-free 2D class averages, 3D classification (RELION) and ab initio reconstruction (cryoSPARC); proteins identified by mass spectrometry of the fraction.

As to 19S regulatory particle (complex), the stoichiometry N was 1 and 2.
